{
  "source": "paper PMC5025888",
  "about": "(Scientific Reports, 2016)",
  "binders": {"B1": {"name": "monoclonal antibody 2H6 (antibody, V domains shown)", "VH": "DVKLVESGGGLVNLGGSLKLSCAASGFTFSRYYMSWVRQTPEKRLELVAAINHNSGRTYYSDTVKGRFTISRDNAKNTLYLQMSSLKSEDTALYYCTRHPLIYHGNYLDYWGQGTTLTVSS", "VL": "DIVLTQSPASLAVSLGQRATISCKASQSVDYDGDSYVTWYQQKPGQPPKLLIYVASNLESGIPARFSGSGSGTDFTLNIHPVEEEDAATYYCQQSNEDPWTFGGGTKLEIK"}},
  "key": {"H1N1-PR8-NS1(RBD)": {"biological_target": "H1N1-PR8-NS1(RBD) (Influenza A virus A/Puerto …, UniProt P03496)", "sequence (P03496 1-70)": "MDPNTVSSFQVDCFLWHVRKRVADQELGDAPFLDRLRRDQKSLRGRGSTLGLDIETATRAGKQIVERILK", "experiment": "ELISA", "details": "both partners purified"}, "H5N1-NS1-24mer": {"biological_target": "H5N1-NS1-24mer (Influenza A virus …)", "sequence (O57276 30-53)": "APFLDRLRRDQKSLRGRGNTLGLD", "experiment": "ELISA", "details": "both partners purified"}},
  "data": [
    {"binder": "B1", "values": [
      {"measurement": "binding result", "setting": "H1N1-PR8-NS1(RBD)", "result": "binds"},
      {"measurement": "binding result", "setting": "H5N1-NS1-24mer", "result": "binds"}
    ]}
  ]
}
